# Test results published in PMC7671035.
# Tests used:
# LY3041658 (human) = assay: SPR
# human CXCL11 (human) = human CXCL11 (human) (UniProt O14625); assay: ELISA
# human CXCL11 (human), sequence (O14625 22-94): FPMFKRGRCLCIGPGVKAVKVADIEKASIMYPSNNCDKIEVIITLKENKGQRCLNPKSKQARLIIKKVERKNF
# human CXCL11, sequence (O14625 22-94): as above
# human CXCL9, sequence (Q07325 23-125): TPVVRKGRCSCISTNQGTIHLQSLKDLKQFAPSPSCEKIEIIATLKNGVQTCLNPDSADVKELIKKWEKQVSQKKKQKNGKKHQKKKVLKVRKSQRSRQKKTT
Kd (LY3041658 (human)),fold shift in EC50 compared with the ELR+CXC chemokines (human CXCL11 (human)),Substance
100 nM,,human CXCL9 (from UniProt Q07325 23-125) (ligand)
100 nM,,human CXCL11 (from UniProt O14625 22-94) (ligand)
,200 fold,LY3041658 (antibody)
